Tests used:
[1] = molecular target: T1, recombinant GST-SNAP25197 (UniProt P60880 1-197); experiment: direct ELISA; signal on GST-SNAP25197 against GST-SNAP25FL as reference
T1 construct: not shown: glutathione S-transferase (GST) tag

recombinant GST-SNAP25FL = molecular target: T2, recombinant GST-SNAP25FL (UniProt P60880 1-206); experiment: BLI (Octet Red96); IgG on AMC biosensor, GST-SNAP25FL as analyte; KD from a tentative koff limit
T2 construct: also called GST-SANP25FL; not shown: glutathione S-transferase (GST) tag
T2 sequence (P60880 whole entry): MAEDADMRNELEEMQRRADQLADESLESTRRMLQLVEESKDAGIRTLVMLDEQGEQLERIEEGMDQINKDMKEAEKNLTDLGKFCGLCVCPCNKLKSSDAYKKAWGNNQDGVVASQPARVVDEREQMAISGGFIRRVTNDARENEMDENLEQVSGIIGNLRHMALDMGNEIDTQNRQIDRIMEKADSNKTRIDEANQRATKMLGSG

[2] = molecular target: T1, recombinant GST-SNAP25197; experiment: BLI (Octet Red96); IgG on AMC biosensor, GST-SNAP25197 as analyte; koff is the instrument's lowest limit, tentatively given
[3] = molecular target: T1, recombinant GST-SNAP25197; experiment: BLI (Octet Red96); anti-GST biosensor dipped in 250 nM GST-SNAP25197, IgG as analyte
[4] = molecular target: T1, recombinant GST-SNAP25197; experiment: BLI (Octet Red96); anti-GST biosensor dipped in 125 nM GST-SNAP25197, IgG as analyte

T1 sequence (P60880 1-197): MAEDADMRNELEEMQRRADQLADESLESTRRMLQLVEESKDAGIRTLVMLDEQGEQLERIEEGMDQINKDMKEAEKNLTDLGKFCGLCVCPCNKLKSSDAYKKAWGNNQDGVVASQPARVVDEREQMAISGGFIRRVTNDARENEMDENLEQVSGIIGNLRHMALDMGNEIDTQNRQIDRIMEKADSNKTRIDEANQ

B1: D6 IgG (antibody, V domains shown)
VH: EVQLQQSGPELVKPGASVKISCKASGYTFTDYNMHWVKQSHGKSLEWIGYIYPYNGDTGYNQKFKSKATLTVDNSSSTAYMELRSLTSEDSAVYYCVRSGDYWGQGTTLTVSS
VL: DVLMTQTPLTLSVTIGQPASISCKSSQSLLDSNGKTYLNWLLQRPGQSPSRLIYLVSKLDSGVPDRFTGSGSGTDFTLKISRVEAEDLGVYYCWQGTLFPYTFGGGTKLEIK
- Ratio197/206 (A450 with SNAP25197 to A450 with SNAP25FL) [1]: 0.02 ratio

B2: B4 IgG (antibody, V domains shown)
VH: EVKLVESGGGLVKPGGSLKLSCAASGFTFSNYGMSWVRQTPEKRLEWVATISSGGSYTYYPDSVKGRFTISRDNAKNTLYLQMSSLRSEDTAMYYCARHEGGGNPYFDYWGQGTTLTVSS
VL: DVLMTQTPLSLPVSLGDQASISCRSSQSLVHSNGNTYLHWYLQKPGQSPKLLIYKVSNRFSGVPDRFSGSGSGTDFTLKISRVEAEDLGVYFCSQNTLVPWTFGGGTKLEIK
notes: also called B4 IgG1; clone 4
- Ratio197/206 (A450 with SNAP25197 to A450 with SNAP25FL) [1]: 0.83 ratio
- Kd (recombinant GST-SNAP25FL): ≤ 0.00105 nM

B3: D3 IgG (antibody, V domains shown)
VH: EVQLEESGGGLVQPGGSLKLSCAASGFTFSNYGMSWVRQTPDKRLELVATINSNGGTTYYPDSVKGRFTISRDNAKNTLYLQMSSLKSEDSAMYYCARDRDAMDYWGQGTSVTVSS
VL: DVLMTQTPLSLPVSLGDQASISCRSSQSIVNSHGNTYLEWYLQKPGQSPKLLIYKVSNRFSGVPDRFSGSGSGTDFTLKISRVEAEDLGVYYCFQGSHVPWTFGGGTKLEIK
- Ratio197/206 (A450 with SNAP25197 to A450 with SNAP25FL) [1]: 12.9 ratio

B4: B23 IgG (antibody, V domains shown)
VH: EVQLQQSGAELVRPGASVKLSCTASGINIKDYYMHWMKQRPEQDLEWIGWIDPGNGDAEYAPKFQGKATMTADTSSNTAYLQLSSLTSEDTAVYYCNEIAYWGQGTLVTVSA
VL: not shown
notes: also called B23 IgG1
- Ratio197/206 (A450 with SNAP25197 to A450 with SNAP25FL) [1]: 0.92 ratio
- Kd (recombinant GST-SNAP25FL): ≤ 0.00104 nM

B5: D2 IgG (antibody, V domains shown)
VH: DVKLQESGPGLVKPSQSLSLTCSVTGYSITSGYYWNWIRQFPGNKLEWMGYIRYDGSNNYNPSLKNRISITRDTSKNQFFLKLNSVTTEDTASYYCARDRDSSYYFDYWGQGTALTVSS
VL: DIVMTQSSSYLSVSLGGRVTITCKASDHINNWLAWYQQKPGNAPRLLISDTTSLETGVPSRFSGSGSGKDYTLSITSLQTEDVATYYCQQYWSAPPTFGGGTKLEIK
- Ratio197/206 (A450 with SNAP25197 to A450 with SNAP25FL) [1]: 0.03 ratio

B6: C7 IgG (antibody, V domains shown)
VH: QVQLVETGGGLVQPKGSLKLSCAASGFTFNTNAMNWVRQAPGKGLEWVARIRSKSNNYATYYADSVKDRFTISRDDSQSLLYLQMNNLKTEDTAMYYCVYGRSYGGLSYWGQGTLVTVSA
VL: DIVMTQSPASLAVSLGQRATISCRASKSVSSSGYSYMHWYQQKPGQPPKLLIYLASNLESGVPARFSGSGSGTDFTLNIHPVEEEDAATYYCQHSRELPLTFGAGTKLELK
notes: also called C7 IgG2a
- koff [2]: ≤ 1e-07 s⁻¹
- Kd [3]: 4.41 nM
- koff [3]: 0.00122 s⁻¹
- Ratio197/206 (A450 with SNAP25197 to A450 with SNAP25FL) [1]: 1040 ratio
- Kd [4]: 19.3 nM
- koff [4]: 0.00494 s⁻¹

B7: C4 IgG (antibody, V domains shown)
VH: DVKLQESGPGLVKPSQSLSLTCTVTGYSITSDYAWNWIRQFPGNKLEWMGYISYSVGTRYNPSLKSRISITRDTSKNQFFLLLKSVTNEDTATYFCARKGEYGFAYWGQGTLVTVSA
VL: DIVMTQSPASLAVSLGQRATISCRASKSVSTSGYSYMHWYQQKPGQPPKLLIYLASNLESGVPARFSGSGSGTDFTLNIHPVEEEDAATYYCQHSRELPLTFGAGTKLELK
- koff [2]: ≤ 1e-07 s⁻¹
- Ratio197/206 (A450 with SNAP25197 to A450 with SNAP25FL) [1]: 919 ratio

B8: C16 IgG (antibody, V domains shown)
VH: EVQLQQSGAELARPGASVQMSCKAFGYTFTNYTMHWVRQRPGQGLEWIGFINPSSDYTNYNQKFKDKATLSADKSSSTAYMQLSSLTSEDSAVYYCARRIFYNGRTYAAMDYWGQGTSVTVSS
VL: DIVMTQSPASLAVSLGQRATISCRASKSVSSSGYSYMHWYQQKPGQPPKLLIYLASNLESGVPARFSGSGSGTDFTLNIHPVEEEDAATYYCQHSRELPLTFGAGTKLELK
notes: also called C16 IgG1
- Ratio197/206 (A450 with SNAP25197 to A450 with SNAP25FL) [1]: 996 ratio

B9: C24 IgG (antibody, V domains shown)
VH: EVKLVESGGGLVQPKGSLKLSCAASGYTFNTYAMNWVRQAPGKGLEWVARIRSKSNNYTTYYADSVKDRFTISRDDSQSMLYLQINNLKTEDTAMYYCVGQILYYYVGSPAWFAYWGQGTLVTVSA
VL: DIVMTQSPASLAVSLGQRATISCRASKSVSTSGYSYMHWYQQKPGQPPKLLIFLASNLESGVPARFSGSGSGTDFTLNIHPVEEEDAATYYCQHSRELPWTFGGGTKLEIK
- koff [2]: ≤ 1e-07 s⁻¹
- Ratio197/206 (A450 with SNAP25197 to A450 with SNAP25FL) [1]: 973 ratio

B10: C14 IgG (antibody, V domains shown)
VH: EVKLVESGGGLVQPKGSLKLSCAASGFTFNTNAMNWVRQAPGKGLEWVARIRSKSDNYATYYADSVKDRFTISRDDSPSMLYLQMNNLKTEDTAMYYCVYGRSYGGLGYWGQGTLVTVSA
VL: DIVLTQSPASLAVSLGQRATISCRASKSVSTSGYSYVHWYQQKPGQPPKLLIYLASNLESGVPARFSGSGSGTDFTLNIHPVEEEDAATYYCQHSRELPLTFGAGTKLELK
- Ratio197/206 (A450 with SNAP25197 to A450 with SNAP25FL) [1]: 953 ratio

Reference: patent US20200173986A1 (HUGEL, published 2020)
